Source: paper PMC10411901, “FIRRM cooperates with FIGNL1 to promote RAD51 disassembly during DNA repair” (Science Advances, 2023)

T1: recombinant full-length FIRRM (human, UniProt Q9NSG2 1-853)
T1 construct: full-length codon-optimized human FIRRM from GenScript; Insect cell form: modified pFastBac dual vector with an N-terminal GFP tag removable with TEV protease; also called iFIRRM (form from insect cells); source: purified from bacteria (E. coli BL21RP) or Sf9 insect cells
T1 sequence (looked up): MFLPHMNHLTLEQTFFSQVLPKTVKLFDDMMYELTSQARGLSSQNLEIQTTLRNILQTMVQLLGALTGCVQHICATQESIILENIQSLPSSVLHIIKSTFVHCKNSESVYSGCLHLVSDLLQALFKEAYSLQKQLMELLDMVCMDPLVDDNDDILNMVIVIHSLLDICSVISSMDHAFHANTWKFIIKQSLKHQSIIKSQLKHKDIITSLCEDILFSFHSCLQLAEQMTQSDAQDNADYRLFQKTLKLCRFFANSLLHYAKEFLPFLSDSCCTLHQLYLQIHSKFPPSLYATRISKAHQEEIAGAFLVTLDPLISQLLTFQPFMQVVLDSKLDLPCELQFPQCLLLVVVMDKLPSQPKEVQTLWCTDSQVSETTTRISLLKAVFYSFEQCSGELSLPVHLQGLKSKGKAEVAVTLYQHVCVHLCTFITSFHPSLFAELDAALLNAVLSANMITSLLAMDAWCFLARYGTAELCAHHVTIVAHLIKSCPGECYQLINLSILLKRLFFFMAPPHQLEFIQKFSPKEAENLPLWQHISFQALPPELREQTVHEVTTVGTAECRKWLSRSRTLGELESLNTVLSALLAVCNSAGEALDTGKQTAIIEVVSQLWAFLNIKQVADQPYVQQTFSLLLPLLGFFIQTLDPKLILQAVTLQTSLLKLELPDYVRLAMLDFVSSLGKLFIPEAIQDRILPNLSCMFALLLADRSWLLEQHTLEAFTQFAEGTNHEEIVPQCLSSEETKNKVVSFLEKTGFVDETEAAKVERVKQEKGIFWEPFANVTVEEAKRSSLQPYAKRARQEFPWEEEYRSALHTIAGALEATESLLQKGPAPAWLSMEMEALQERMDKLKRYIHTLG

B1: recombinant full-length FIGNL1 (natural protein, human, UniProt Q6PIW4 1-674, looked up)
chain: MQTSSSRSVHLSEWQKNYFAITSGICTGPKADAYRAQILRIQYAWANSEISQVCATKLFKKYAEKYSAIIDSDNVESGLNNYAENILTLAGSQQTDSDKWQSGLSINNVFKMSSVQKMMQAGKKFKDSLLEPALASVVIHKEATVFDLPKFSVCGSSQESDSLPNSAHDRDRTQDFPESNRLKLLQNAQPPMVTNTARTCPTFSAPVGESATAKFHVTPLFGNVKKENHSSAKENIGLNVFLSNQSCFPAACENPQRKSFYGSGTIDALSNPILNKACSKTEDNGPKEDSSLPTFKTAKEQLWVDQQKKYHQPQRASGSSYGGVKKSLGASRSRGILGKFVPPIPKQDGGEQNGGMQCKPYGAGPTEPAHPVDERLKNLEPKMIELIMNEIMDHGPPVNWEDIAGVEFAKATIKEIVVWPMLRPDIFTGLRGPPKGILLFGPPGTGKTLIGKCIASQSGATFFSISASSLTSKWVGEGEKMVRALFAVARCQQPAVIFIDEIDSLLSQRGDGEHESSRRIKTEFLVQLDGATTSSEDRILVVGATNRPQEIDEAARRRLVKRLYIPLPEASARKQIVINLMSKEQCCLSEEEIEQIVQQSDAFSGADMTQLCREASLGPIRSLQTADIATITPDQVRPIAYIDFENAFRTVRPSVSPKDLELYENWNKTFGCGK
notes: Insect cell form: modified pFastBac dual vector with an N-terminal GFP tag removable with TEV protease; source: purified from bacteria (E. coli BL21RP) or Sf9 insect cells
B2: FIGNL1 purified from insect cells (natural protein, human, UniProt Q6PIW4 1-674, looked up)
chain: B1 chain
notes: The GFP tag is removable with tobacco etch virus protease; the results speak of the protein from insect cells; source: Sf9 insect cells (baculovirus), purified (gel filtration)

How the values were obtained:
[1] = biological target: T1, recombinant full-length FIRRM; assay: co-IP; purified recombinant RAD51, FIRRM and FIGNL1 together; anti-RAD51 14B4 on protein A/G Sepharose; IPB buffer (20 mM KPO4 pH 7.4, 175 mM KCl, 0.5 mM EDTA, 0.5% NP-40, 10% glycerol, 1 mM DTT); Western blot; details: both partners purified
[2] = biological target: the molecule itself; assay: cryo-EM two-dimensional class averages; FIGNL1 10 μM in 1× PBS with 2 mM MgCl2 and 1 mM AMP-PNP on graphene oxide lacey carbon grids; 2D classes from 1287 particles; hexamer model from an AlphaFold monomer

Binder	binding result [1]	stoichiometry N [2]
B1	binds	–
B2	–	6
